Data from the NTF2 design screens of Basanta et al. (2020).

Assay: protease stability score; higher = more stable; yeast display proteolysis, trypsin and chymotrypsin;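 also: relative to predicted unfolded state with 0 unfolded-like and 1 meaning tenfold more protease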

Row | Sequence | protease stability score
1 | DDHETEMIHWAELFAELIRTGDEEKLDKLLDPNVKIDINGRKFHGRESMRFALKHLRIHHVEIDDLKVQGDKSFWIGFVEGQIDGQRDRRHSTIELLLVNGRIKSVQLEFR | 1.61
2 | SEDEHSWRLAREEFRKTNETGNEEDLSRLFDPHVRIDINGREIHGRDEASELFHKLGIDHIRWRVKRVKIFDGRMENRGELILIFNGREHRYDITVISSKIDGQWSVESMHYK | 0.534
3 | SEDDEMLKLFFELVHRFHLTGDETNHLNNMDPHARMNAENWRRHGRHALEQLRTRFDHIDHVHLDHYETFDGRLILHVTVDGQFDGVRDRNTLHIVMKKINGRWIMEELRIQ | 1.23
4 | SEEDHEHKVLTELSRKDWRTGNEHDLERLMDPNVRVEVDGREHHGWESAHELAKHFHRFFKNATLEIRHEEIQGEYLHIEMIIRVGDKVFDVHFIARKINGRWVLTEFSVH | 0.261
5 | SDEHDVVRELLEIMEIVWRTGDWREMTKMFDPNTRISYGDKYIVGWEALEVLLKRIDHHTMHEIHFRDVHVQGDKIRLDGEVRFERHVGDYREHVTVDVHIHARKIDGRWINTNIRTH | 0.743
6 | DEEERHMKKLLDELLRAWVTGDESRLSELLDPNARSIVNGKSSHGREESEKIVRWAGVKHFNEDDTKLINGVVVVKGTMEVDGVTWEVDIRNFIFDGRVKEVRIIIR | 1.19
7 | DEEEEQARHMVMLFLRYILTGDEKHFQTLADPDVRTDVNGKEHHGREEATRTLRLYIELMGADHIQLKDWEIEVQGEFVRLRLHVQVDVGDKHLRTDLHFEIKKVNGQWVVHQVVIKTL | 2.19
8 | DEDREAMEELVRRTLKASSTGDEELSDQLMDPNTRIEVNGKHLIGREMWIKFLVELRIIFHEVHVHDVRSVGDKVDADVHVIFELRINGKRIDIETRVTFYFRKINGRWLVKSIRFE | 1.07
9 | SEDDEHSRDAFEIFMRLIRTGDWHHLLNLLDPHVRIDFNGREHIGREEATRILVEWRIRNIRLRHYDMVNGRAHFHTESDVEFNGRRDKIEIHMVVLKIDGRWFIHSMIIH | 2.42
10 | HDLEKFLDHFFEKLMKELETGDEQSWRRLADPRARLHINGKDFHGREFEHELRNKWGVSRVEEKLDSRDVIGNKLILDGSLSVNGKEIKAILFVQKVDGKWEFKEIEVH | 1.34
11 | DEDRREVQRFIESVVHAIRTGDWRRILELADPNTRLDFDGKVFHGMHVSVKRIIEELEKVKGLRIKDMTTDSVNIYNGVVELDGTLDLEIGDYESHVSAKFVLLKFNGRWFIHEESTR | 1.59
12 | SEEEENSRRVLELFRRIFETGDEDTSRRLADPDARVEVGEFHSIGRESFARMLHHLWRELRWKDEKIEHIEVQGDKVHVNGINFVIYNGKEINLTVHLEMQKVDGRWHIHHFKIE | 1.67
13 | DESHESLHKMLKVRYEALHTGDESMLNELLDPDARFNVDGRIHHGRERAVRYNERIPNLTTRDLKVHDWKVIGDKIHIDGRLEGHWNGKHHIINEEIIVQKINGKWLIEEVIVR | 0.109
14 | SEHDEQAEDWTRKHIHWFETGDEELLETLLDPNTRHIVDGQEYHGRENLRRMFHYLLSFMGIKYVRLTNHEVVGDKAHIHMTTNVNGQHTRLILHLIVINGRVHTIEIRVR | 0.544
15 | EEEKRISDRSLEHLVRSWWTGDEQLYTELADPNVRVEIGDKEYHGREDARHALRRELEHIRIKHIVYRRFEFVGEYIHVDTRMLVDVNGVHILRTMHILEFKFDGRWHLTSLIIR | 1.21
16 | SEEEERLRENLERWHRALYTGDEEHLFNLADPHARFEIIVDGRDVRIHGRENYLRWVEEFRKELGISRVHTELKSEHVINGRNDEDGLVHINGRSLRVHFHLDVVDGRTKKIHIYVR | 0.779
17 | TDEEKETEEHRKHFEHYERTGDWRELERLFDPNARLIIGDKILHGRELVTRWMFEFVKEMRINHIELHTMEIQGEKIHLDITVHVKFNGQERDIRVTEIHKKFDGRWTIEQIHFN | 1.46
18 | SEEDEIVRKLSEIMIHSLETGDFDSFRELADPDYRIETEDHEIVGMEEFERWLKEHLDRFDYDKWEYHSLHIYGDKVKMDIELHLDIDGVKRTHDVYIIIRKYNGQWIVESFMFK | -0.384
19 | EEEDEWSREAVEFFKRMVETGDEDLQETLADPNARLIQGDKDEHGRHVLSEWMHRMGVDHIRFHHIDVQGDKVRLDFTMRVNGRQIHVKINNMKVNGQWRIKSVHLR | 0.537
20 | DTDAVRRALKFIDAMQDGDPDKARELMDPNARVNIGDKEYHGMTSFVKDLKRLRDEIRVQYNIRDYNAQGEKIHVTVDVVFEHNGRPVDERFNVTIDIQGDKIKQVTAHRTK | 1.5
21 | DELTESVREFIEHFIRALETGDWHILHRLLDPHVKLNVNGVEFHGREIIVEFLREIRIHSFIVHHVRIQGDWIDIDGETDGVINGRRIRTRTRIHLHKIDGRWQIKSESVI | 2.09
22 | SEDEEDARRMVEIWKRSLETGDFKRILELMDPNTKYLFNGREYHGRHFVSRLFTEELERIKGARIEEESLEIQGNKVILHTRLHINGQHFKQITIIMKIDGKWFLESFSVE | 2.01
23 | DEDHELMRWMLELLIDHTLTGDEERIHELADPNVKIDVNGVELHGRHLWIKYLSELRIHKVEIRQTRLIDGVMHIDTSLDISYDGVRRETQHHLVILKINGKWMIHNVSYK | 1.15
24 | DEEEELMHRLVELFLKALITGDEETLSHLADPNVRLHIDGRHIHGWQFSVKEWLRESSEIRMELQIRHIHLIGDKVHVHGQLSIHQGNKHIHREVIYDFVIINGRLKSITVEIT | 1.99
25 | SEEEHITKLALDMWFTSLLTGDEHTFRHLLDPNVRVHIDGREYHGREHWRDLLTYLLTHLGVDHMEFRTRDQDVVGDKITLVTEIIIHVGDKNLSFESELIVAKVDGRWRIRSEDYR | 0.645

Row | Sequence | protease stability score
26 | SEDDEKSQEIMHRFIKYYETGDWKRLYELADPNARSYYNGKERHGMDVIRDLIEKVKNVKLHIRRIESDVQGDKINLHLDVEVDIDGQIMTLHDTVHAEKIDGRWRIRIIFLHVK | 1.36
27 | DEDERLSRELLKRWMTSIMTGDETSSQHLADPHDRIDINGREFHGRELATWVAHHLRIDSIQERHQEIQGEKLIVLGETDYIVDGVKQIRRTEYILRKFNGRWFFESIIFR | 0.9
28 | DEDTEKLKKSLEVIWRLLHTGDENSLEHLMDPNARLDINGVTQVGRTASKIIIDRFDHIRHIHINDVRFIDGRAHVHGKTDGIQGDKRYEVSMEIILLKINGRWIIHQFYTE | 1.38
29 | SEEEEEIKTWTDLFINLWMTGDFHTLVHLLDPNVKAEIDGVDVHGRESVEKMLRIFIKRLGADHSDVRDSSIVNGRLDIELESDVNGRIRTIDIHVLIINGRVKSLKVDIR | 2.46
30 | SELEEKAREMLTLLHKFWRTGNEEFFTKLFDPDMKLTVGDKEYIGMEDVTEYFVKWTREARLTDQETTDIEYYDGRLRIHVEMDVKQGDKRRKLESIIILLKVDGRWFATKVEIR | 0.928
31 | DREELLMLFLKSWLTGDEHILKELLDPHVRMDVDGVEQHGRDVLLHLLHHLSRYMGVDHHRIERFEVQGDKIFINLRIHWNGVESELEIILFVIDGKIKEVEIRSRDEDHKRMVKESWR | 1.19
32 | DEDHRLAVHISKMFEHAESTGDFEISERMADPHTKIDIGDKHYHGMEEWVRFLRELRLSTDHIEIKDSKRYNGRLIIHSRTRITLNVNGKTIDFEIDVTFIFEKVNGRWKLHMYRFD | 0.944
33 | SEEEEEMEKVAKRWFWAVLTGNEDELHELLDPEAKSDVNGRDTHGREEVVRLMTEHVEKLGVDHVKVHDVKIQGNKFHFDGILIFNGVTVHSRVELDLINGKVHYMSIKLQ | 1.1
34 | EEEEKMARKMIKDIIENFRTGDWDLMETLADPDVRLHFNGRDYHGREEFLKIERTRFEKVPNVRETERNVTWRNFDGRLELEIHTEHIINGVRIHVLLIFTTEKINGRWSMKSIEIHEK | 0.704
35 | NEVDEWVEEAVHLLEEILETGDFRELSNYFDPRVRIDINGRDYHGRELALEQLLRWIEDLGVKHFDHYEIHDREIQGEKVNLNIEITLTFDGRRHTIHHNFHMEKVNGKWVIESIHIR | 1.19
36 | SEEEETLKRLAHHMYESYITGDERVIKHLVDPNARSRIGEFDDHGREATEELIRRIDHVHHIDIRDMKIQGNWLHLHVRVDGVVDGKRTEHDMEIIVLKVDGKWIVHSMIQR | 1.05
37 | SDDEEEVLRLMDHILHALWTGDWKHLEENMDPNVRSHINGQDVHGMERVVEFILRELKELRFEHLHIEHVEIIGNKATLHYRVDGHINGRRINRRVHLEVTMVNGRVKQVIFFNE | 2.08
38 | DEERKELEEALRELKHSWETGDWRSLSEMADPNVLLKQGDFEYHGRELFLEFMRHLIEHLGIKHVEIRDMKIFENRVDMDVIIRFNGQTTRIQIILVKFNGRWFIKSVIIR | 2.02
39 | DEVKEDTRRFFERIERALKTGDEDELKRMMDPHVQIHAENHEFHGREALRHFLERYDVVRDIKINDWRIINGRIQIDGEVEGVFNGRDKETHTIMILLKINGKWVITSLTIN | 2.09
40 | TEDDELLHRAERLVYHSLLTGDFHTLKHLMDPHVRTHIDGRDTHGRDKATNFFIKYWEDLGVKHITYEDMHVHFFEGHLTVLLIVKLNIDGRERRNVYIFIFMKIDGKWLNHEVHIHIN | 0.651
41 | DERFELFDWVVRLILHAHHTGDERIIHELADPNVRYIINGVTVHGRELMYRLAHEHLREIWVHHVQVRHFDVVGDFFRVEMEVVGLVNGVHYNEHRRLHLYVVNGRLKSSRIEIE | 1.03
42 | DELIKLAHEFLRIMYDSLRTGDEDRVSELLDPHARLDINGKKRHGRKAILDTYREIWFHDIKIKDVDVIDGVIEIDTRLDLEINGVRFEMKTIIFLTKFNGRWVIEEIRIR | 1.21
43 | SEDEEEVRKFLKRLLRATETGNEQVLKELFDPNVRIVIGDKHLIGWDFMHTILRRVDVWVVRHIEIKRIDFQGDKLDIDGHVHYEEQIDGQRVSHKRDVKLIMLKVNGVWMFEYIIIH | 2.45
44 | DDLEEEVEHFFELFWDDLLTGDEHSLTRQLDPHARFEYGDKVWHGREVYRQFMTQADHRHVEIKHTRVVNGRVEMNIEVRLHINGRRIESTVHIISTKINGQWRLESQHVE | -0.081
45 | SEDDRDSKEAKHLLHELIRTGDEDELVKLLDPNMIIIVGDKEYIGWEQAVRLLRELNRRFDHVELRFRDIEIQGEWVDTDIELIYRFDGRETRIDTRFIAYKVDGRWFNHHIEIK | 0.582
46 | SEEEEEARKAFDDFYKSLETGDEEDLSKMIDPHVRIDINGREVHGREYAQTFWRDLIEKVKNLTLHLRDFRVIDGRLHSKMEIHQGEFHTEVNIHSKKINGRWLVQTFEFR | 1.84
47 | SKEEEDTERITRLILEYLLTGDEDVFNHLADPNVRLVIDGRLVHGRERASRIMVESYEKFGADHREVRMHSVRDVDGRIHSDIKVHVHIGDKRQNLSHEVYSTKYDGRWIIKSVILT | 0.245
48 | DEEDEITHKMLRRWFEILATGNEHLFQHYADPNVLVRYEVGDKEWRLHGREEALRYWSELRIHELKVEHFTEVGDKVHMDTRRKGEFDGRRDTKKTRVHIVIIDGRLHNVELRIV | 1.14
49 | DEEKEELEKATEEWVHFMRTGDEDSLIKNLDPNVKNIFNGKEEIGREDLSHFIKHMGAKVVRIEDIKTQGDKVIIDTRIEVGDKHFEVTLYFEKINGRWFLHSVEIR | 0.512
50 | DELEETAERMMKQFTDMWRTGDEEYFWRLADPHVRVNIDGVTRIGREESSEMFERWIRHIRLKSVHIEEVEIQGEKSHSDGRLNEIVDGKEEIVHVTINLIVINGRIHSVEFERE | 0.765
